Results from US7968297B2, “Method for identification, isolation and production of antigens to a specific pathogen” (Intercell AG, priority 2001, dated 2011).

B1: extracellular matrix and plasma binding protein (protein, listed as Staphylococcus aureus)
chain: MNSNHAKASVTESVDKKFVVPESGINKIIPAYDEFKNSPKVNVSNLTDNKNFVASEDKLNKIADSSAASKIVDKNFVVPESKLGNIVPEYKEINNRVNVATNNPASQQVDKHFVAKGPEVNRFITQNKVNHHFITTQTHYKKVITSYKSTHVHKHVNHAKDSINKHFIVKPSESPRYTHPSQSLIIKHHFAVPGYHAHKFVTPGHASIKINHFCVVPQINSFKVIPPYGHNSHRMHVPSFQNNTTATHQNAKVNKAYDYKYFYSYKVVKGVKKYFSFSQSNGYKIGKPSLNIKNVNYQYAVPSYSPTHYVPEFKGSLPAPRV
B2: IsaA, possibly adhesion/aggregation (protein, listed as Staphylococcus aureus)
chain: MKKTIMASSLAVALGVTGYAAGTGHQAHAAEVNVDQAHLVDLAHNHQDQLNAAPIKDGAYDIHFVKDGFQYNFTSNGTTWSWSYEAANGQTAGFSNVAGADYTTSYNQGSNVQSVSYNAQSSNSNVEAVSAPTYHNYSTSTTSSSVRLSNGNTAGATGSSAAQIMAQRTGVSASTWAAIIARESNGQVNAYNPSGASGLFQTMPGWGPTNTVDQQINAAVKAYKAQGLGAWGF
B3: ORF2671 (protein, listed as Staphylococcus epidermidis)
chain: VKHSKKLLLCISFLLITFFIGGCGFMNKDDGKETEIKQNFNKMLNVYPTKNLENFYDKEGYRDEEFDKDDKGTWIVHSKMVIEPKGKNMESRGMVLFINRNTRTSKGYFIVNEIEKDRKGRPINNKKKYPVKMKNNKIIPTKPISNDKLKKEIENFKFFVQYGNFKDIKNYKDGDISYNPNVPSYSAKYQLSNNEYNVQQLRKRYDIPTKKVPKLLLKGDGDLKGSSVGSKNLEFTFIENKEENIYFTDSVLFSPSEDNES
B4: ORF0355 (protein, listed as Staphylococcus epidermidis)
chain: MSKHSATLVIMFLITLLPIFQYQASAHATLEKSTPQQQGVIKDKPEAIKLEFNEPVNTKYSSVTLFDDKGKKIKDLKPITTGWSQTVVFSSEQIVNGTNTIEWHTVSADGHEVGDTFEFSVGKVRLKM
B5: ORF2669 (protein, listed as Staphylococcus epidermidis)
chain: MHYLKKVTIYISLLILVSGCGDSKETEIKQNFNKMLNVYPTKNLEDFYDKEGYRDEEFDKDDKGTWIIRSEMTKQPKGKIMTSKGMVLHMNRNTRSTTGYYVIRKISEDNKSEIDDEEKKYPIKMVNNKIIPTQKINDNKLKNEIENFKFFVQYGSFKNSDDYKEGDIEYNPNAPNYSAQYHLSNDDYNIKQLRKRYDIKTKKTPRLLMRGAGDPKGSSVGYKNLEFTFVKNNEENIYFTDSINFNPSKGKSL
B6: ORF2098 (protein, listed as Staphylococcus epidermidis)
chain: MIKKNKEELNDMEYLVTQENGTEPPFQNEYWNHFEKGIYVDKLSGKPLFTSEDKFESNCGWPSFSKALNDDEIVELVDKSFGMIRTEVRSEKANSHLGHVFNDGPKEKGGLRYCINSAAIQFIPYDKLEELGYGDLIKHFKK
B7: ORF0979 (protein, listed as Staphylococcus epidermidis)
chain: MMIIVMLILSYLIGAFPSGLIIGKLFFKKDIRQYGSGNTGATNSFRVLGRPAGFIVTFLDIFKGFITVFFPLWFPVHADGVISTFFTNGLIVGLFAILGHVYPIYLKFNGGKAVATSAGVVLGVNPILLLILAIIFFSVLKIFKYVSLSSIIAAISCVIGSIIIHDYILLAVSGIVSIILIIRHKSNIVRIFKGEEPKIKWM
B8: ORF2260 (protein, listed as Staphylococcus epidermidis)
chain: MARIATKLGYPESNSFVTNTVIEFVLHNEAYPRLYRIKTRDTNLIKISQANEISRQITNGTMTLEEAKYQLEEIYVAKRDSSLPFKGIAAAIIATSFLYLQGGRLVDIITAVLAGTIGYLVVEILDRKLHAQFIPEFIGSLVIGIISVIGHAFVPSGDLATIIIAAVMPIVPGVLITNAIQDLFGGHMLMFTTKSLEALVTAFGIGAGVSSILILV
B9: ORF2673 (protein, listed as Staphylococcus epidermidis)
chain: MRYLKKVTIYISLLILVSGCGNGKETEIKQNFNKMLDMYPTKNLEDFYDKEGYRDEEFDKKDKGTWIVGSTMTIEPKGKYMESRGMFLYINRNTRTTKGYYYVRKTTDDSKGRLKDDEKRYPVKMEHNKIIPTKPIPNDKLKKEIENFKFFVQYGDFKNLKDYKDGDISYNPNVPSYSAKYQLSNNDYNVKQLRKRYDIPTNQAPKLLLKGDGDLKGSSIGSKSLEFTFIENKEENIFFSDGVQFTPSEDSES
B10: ORF0442 (protein, listed as Staphylococcus epidermidis)
chain: MKKIKTISTLVAGLGIAFLGHTTHADAAENNNQQQSTYNYSTTEVSFSNSGNLYTSGQCTWYVYDKTGGKIGSTWGNANSWATAAQAAGFTVNNTPEEGAIMQSSEGAFGHVAFVESVNNDGSITVSEMNYDGGPFAISTRTISASEASSYNYIHLN
B11: CRF0145 (protein)
chain: FKYKKNRKIPSIMMQQIKITILYSYLTINKWEYLLNITPNKTVLPATGQKELILAVFTMFKVSKSFSLILTYFFGISQLIIGKKSANHVLTKSIIKYSSLYLIILYLGFLLIFSVSQSNVSTSFQLVLY
B12: CRF0497 (protein)
chain: LLHHLVLLHLSQLILAQLPYQELTLVRKMDSHVLGLYPLIVYVQFQMFPYHRYQNQSIHRFDLQYFH
B13: ORF2958 (protein, listed as Staphylococcus aureus)
chain: MKMKNIAKISLLLGILATGVNTTTEKPVHAEKKPIVISENSKKLKAYYNQPSIEYKNVTGYISFIQPSIKFMNIIDGNSVNNIALIGKDKQHYHTGVHRNLNIFYVNEDKRFEGAKYSIGGITSANDKAVDLIAEARVIKEDHTGEYDYDFFPFKIDKEAMSLKEIDFKLRKYLIDNYGLYGEMSTGKITVKKKYYGKYTFELDKKLQEDRMSDVINVTDIDRIEIKVIKA
B14: CRF2349 (protein)
chain: SIIVNTVSKCIKVRLVGISIATTFLNVACGFSKIRRANFSIACADVRSETPIAKTSLDKTSSSPPSILNGQSRSNQIGIFASLNLG
B15: ORF2931 (protein, listed as Staphylococcus aureus)
chain: MKLKSLAVLSMSAVVLTACGNDTPKDETKSTESNTNQDTNTTKDVIALKDVKTSPEDAVKKAEETYKGQKLKGISFENSNGEWAYKVTQQKSGEESEVLVADKNKKVINKKTEKEDTMNENDNFKYSDAIDYKKAIKEGQKEFDGDIKEWSLEKDDGKLVYNIDLKKGNKKQEVTVDAKNGKVLKSEQDH
B16: ORF1848 (protein, listed as Staphylococcus aureus)
chain: MKLKSFVTATLALGLLSTVGAALPSHEASADSNNGYKEMTVDGYHTVPYTISVDGITALHRTYFIFPENKNVLYQEIDSKVKNELASQRGVTTEKINNAQTATYTLTLNDGNKKVVNLKKNDDAKNSIDPSTIKQIQIVVK
B17: CRF2729 (protein)
chain: GMKMISISDEINCLICCNCVGLCSFISSAKYIFWISISSNTVAKTSIKRGKFLVTARSIRR
B18: CRF1763 (protein)
chain: FEATKVPHNGSTLINNALNFNEALICLSLKVNIALIIPKIATIRGIVMLGYCGICKKAPRPAITPHTNAIYRNCFKSFTPKLLLHYYT
B19: CRF2155 (protein)
chain: ILSAALSTPALLNNTSILPNCSFMSDTKSTTCCSLALSTLYAFALSPLLLILSTVSDTASAMSTANTYAPY

The molecules below were run on antibodies in human patient sera (assay: Western blot reactivity of selected clones with human sera). Settings: 10 to 30 different human patient sera.
Assay type: binding
Protocol: For Western blot analysis approximately 10 to 20 μg of total cellular protein was separated by 10% SDS-PAGE and blotted onto HybondC membrane (Amersham Pharmacia Biotech, England). The LamB or FhuA fusion proteins were detected using human serum as the primary antibody at a dilution of 1:5000 and anti human IgG antibodies coupled to HRP at a dilution of 1:5000 as secondary antibodies. Detection was performed using the ECL detection kit (Amersham Pharmacia Biotech, England). Alternatively, rabbit anti FhuA or mouse anti LamB antibodies were used as primary antibodies in combination with the respective secondary antibodies coupled to HRP for the detection of the fusion proteins.
Subsequent sequencing of a larger number of randomly picked clones (500 to 800 per screen) led to the identification of the gene and the corresponding peptide or protein sequence that was specifically recognized by the human patient serum used for screening. The frequency with which a specific clone is selected reflects at least in part the abundance and/or affinity of the specific antibodies in the serum used for selection and recognizing the epitope presented by this clone. […] All clones that are presented in Table 2 have been verified by Western blot analysis using whole cellular extracts from single clones to show the indicated reactivity with the pool of human serum used in the screen.
10 to 30 different human patient sera were subsequently used to evaluate the presence of antibodies against the selected immunogenic peptide sequences that have been discovered in the screen according to the present invention. To eliminate possible cross-reactivity with proteins expressed by E. coli, all sera were pre-adsorbed with a total cellular lysate of E. coli DHa cells expressing FhuA protein.
This analysis is summarized in Table 2 and as an example shown in FIG. 4 and is indicative of the validity of the present screen.
For IgG binding protein A [compound 2548], the “antibodies against selected epitope in patients” value was “production of antibodies in a large number of patients”. B1 was tested, and the “antibodies against selected epitope in patients” value was “production of antibodies in a large number of patients”. With B2 the “antibodies against selected epitope in patients” value was “production of antibodies in a large number of patients”.

Same assay, conditions: clone and its aa region are named in the cell; prefix A/B/C = screen the clone came from
B3 was tested, and the “Serum reactivity with relevant region (positive/total)” value (“Serum reactivity … (positive/total)” for short) was “B: SELAD21(36-61): 5/12”. In the case of B4, the “Serum reactivity … (positive/total)” value is reported as “C: GSBBL39(63-86): 1/1”. For B5, the “Serum reactivity … (positive/total)” value was “B: SELAE27(22-51): 5/12”. For B6, the “Serum reactivity … (positive/total)” value was “A: SEFAQ50(15-57): 5/12”. For B7, the “Serum reactivity … (positive/total)” value was “B: SELAH01(26-49): 5/12”. With B8 the “Serum reactivity … (positive/total)” value was “B: SELAG77(123-142): 12/12”. B9 was tested, and the “Serum reactivity … (positive/total)” value was “B: SELAE25(23-54): 2/12”. In the case of B10, the “Serum reactivity … (positive/total)” value is reported as “C: GSBBM60(65-84): 1/1”. B2 was tested, and the “Serum reactivity … (positive/total)” value was “B: SELAA47(238-259): 12/12”.

Same assay, conditions: positive sera / total sera tested; clone and its aa region named in the cell
In the case of “ARF0280 (VYMLSSTRFIVRWYNNCNKSTNIINERSSGSIKSDGNSSCFFK)”, the “Serum reactivity … (positive/total)” value is reported as “SALAM59(25-43): 1/1”. With B11 the “Serum reactivity … (positive/total)” value was “SALAZ40(81-90): 2/12”. With B12 the “Serum reactivity … (positive/total)” value was “GSBXF31(19-34): 1/7”. B13 was tested, and the “Serum reactivity … (positive/total)” value was “F: SALBB59(154-168): 4/41”. In the case of B14, the “Serum reactivity … (positive/total)” value is reported as “GSBXC92(52-67): 2/11”. For B15, the “Serum reactivity … (positive/total)” value was “E: GSBZA13(22-37): 7/41”. For B16, the “Serum reactivity … (positive/total)” value was “E: GSBZB15(75-90): 6/41”. B17 was tested, and the “Serum reactivity … (positive/total)” value was “SALAQ25(40-56): 1/1”. B18 was tested, and the “Serum reactivity … (positive/total)” value was “C: GSBYI30(1-22): 1/1”. B19 was tested, and the “Serum reactivity … (positive/total)” value was “SALAQ54(54-66): 1/12”.
